T1: Ca2+-depleted α-lactalbumin (UniProt P00711 20-142)
T1 sequence (looked up): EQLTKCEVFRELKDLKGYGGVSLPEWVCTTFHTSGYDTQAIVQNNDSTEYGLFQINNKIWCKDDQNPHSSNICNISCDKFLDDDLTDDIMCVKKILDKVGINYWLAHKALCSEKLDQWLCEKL

B1: glycogen phosphorylase b from rabbit skeletal muscles (enzyme, UniProt P00489 1-843, looked up)
chain: MSRPLSDQEKRKQISVRGLAGVENVTELKKNFNRHLHFTLVKDRNVATPRDYYFALAHTVRDHLVGRWIRTQQHYYEKDPKRIYYLSLEFYMGRTLQNTMVNLALENACDEATYQLGLDMEELEEIEEDAGLGNGGLGRLAACFLDSMATLGLAAYGYGIRYEFGIFNQKICGGWQMEEADDWLRYGNPWEKARPEFTLPVHFYGRVEHTSQGAKWVDTQVVLAMPYDTPVPGYRNNVVNTMRLWSAKAPNDFNLKDFNVGGYIQAVLDRNLAENISRVLYPNDNFFEGKELRLKQEYFVVAATLQDIIRRFKSSKFGCRDPVRTNFDAFPDKVAIQLNDTHPSLAIPELMRVLVDLERLDWDKAWEVTVKTCAYTNHTVLPEALERWPVHLLETLLPRHLQIIYEINQRFLNRVAAAFPGDVDRLRRMSLVEEGAVKRINMAHLCIAGSHAVNGVARIHSEILKKTIFKDFYELEPHKFQNKTNGITPRRWLVLCNPGLAEIIAERIGEEYISDLDQLRKLLSYVDDEAFIRDVAKVKQENKLKFAAYLEREYKVHINPNSLFDVQVKRIHEYKRQLLNCLHVITLYNRIKKEPNKFVVPRTVMIGGKAAPGYHMAKMIIKLITAIGDVVNHDPVVGDRLRVIFLENYRVSLAEKVIPAADLSEQISTAGTEASGTGNMKFMLNGALTIGTMDGANVEMAEEAGEENFFIFGMRVEDVDRLDQRGYNAQEYYDRIPELRQIIEQLSSGFFSPKQPDLFKDIVNMLMHHDRFKVFADYEEYVKCQERVSALYKNPREWTRMVIRNIATSGKFSSDRTIAQYAREIWGVEPSRQRLPAPDEKIP
notes: glycogen phosphorylase, muscle form, b form, rabbit; subunit 97.4 kDa as printed; In the assays partially unfolded by heating at 48 °C; also called Phb; muscle glycogen phosphorylase b
B2: Human full-length untagged HSPB5 (αB-crystallin) (natural protein, UniProt P02511 1-175, looked up)
chain: MDIAIHHPWIRRPFFPFHSPSRLFDQFFGEHLLESDLFPTSTSLSPFYLRPPSFLRAPSWFDTGLSEMRLEKDRFSVNLDVKHFSPEELKVKVLGDVIEVHGKHEERQDEHGFISREFHRKYRIPADVDPLTITSSLSSDGVLTVNGPRKQVSGPERTIPITREEKPAVTAAPKK
notes: αB-crystallin (HSPB5), human, full length, untagged; subunit mass 20.2 kDa as printed; Polydisperse oligomer whose size depends on concentration, temperature and crowding; the preparation was a gift of N. Sluchanko; also called the chaperone; source: expressed and purified as described earlier [104]

Series [1] deals with the molecule itself. Description: AUC; sedimentation velocity, Phb 0.5 mg/mL with HSPB5 0, 0.025 or 0.075 mg/mL, 30 mM Hepes, pH 6.8, 0.1 M NaCl, 0.2 mM EDTA, 48 °C, 48,000 rpm; masses by the Svedberg equation with diffusion coefficients from DLS.
The target of series [2] is T1, Ca2+-depleted α-lactalbumin. Description: cell-based or functional assay.
Series [3] addresses B1. Kind of series: cell-based or functional assay.
Series [4] deals with the molecule itself. Description: AUC; sedimentation velocity, Phb 0.4 mg/mL, HSPB5 0.26 mg/mL and their mixture, Hepes buffer with PEG 20 kDa 25 mg/mL and PVP 25 kDa 12.5 mg/mL (mixed crowding), 48 °C, 48,000 rpm.

We go through two molecules from article PMC7404038, “Chaperone-Like Activity of HSPB5: The Effects of Quaternary Structure Dynamics and Crowding” (International Journal of Molecular Sciences, 2020).

Broadly, the stoichiometry N is the number of molecules, sites or subunits per partner or assembly. For the molecule B1, in series [1], the “stoichiometry N” value was determined as 2.
On to B2, for which, in series [2], the “initial stoichiometry S0 of the HSPB5-αLa complexes from suppression of DTT-induced aggregation of αLa at 37 °C (DLS; (Kagg/Kagg,0)^1/b versus [HSPB5]/[αLa])” value is 0.011 HSPB5 subunits per αLa molecule (molar ratio). Further, the “stoichiometry S0 of the chaperone-target protein complex from suppression of thermal aggregation of Phb at 48 °C (DLS; Kagg/Kagg,0 = 1 − x/S0)” value in series [3] is 0.31 HSPB5 subunits per Phb monomer (molar ratio). Besides, the binding result in series [4] was “binds”.
